Experimental data from the supplement of paper PMC9112550, “Optimization of the antimicrobial peptide Bac7 by deep mutational scanning” (BMC Biology, 2022).
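Note: peptides expressed intracellularly from a pBAD plasmid library in pooled LB shake-flask culture, induced with 0.3% L-arabinose, DNA abundance read by NGS, three biological replicates, DESeq2 with apeglm shrinkage.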

The sequences below were run on Escherichia coli TOP10 (assay: shrunken log2 fold change of peptide-encoding DNA abundance (4.5 h post-induction vs induction); higher = less antimicrobial activity (less host growth inhibition)). Details: time post-induction: 4.5 h; library: site-saturation at positions 5, 18, 19, 20.
With RRIRWRPPRLPRPRPRPSPTPRP the “shrunken log2 fold change” value was 0.0554. In the case of RRIRWRPPRLPRPRPRPSPYPRP, the “shrunken log2 fold change” value is reported as -0.25. In the case of RRIRWRPPRLPRPRPRPSQKPRP, the “shrunken log2 fold change” value is reported as -0.0621. For RRIRWRPPRLPRPRPRPSRCPRP, the “shrunken log2 fold change” value was 0.0613. In the case of RRIRWRPPRLPRPRPRPSVLPRP, the “shrunken log2 fold change” value is reported as -0.225. In the case of RRIRWRPPRLPRPRPRPSVYPRP, the “shrunken log2 fold change” value is reported as 0.0378. RRIRWRPPRLPRPRPRPSWCPRP was tested, and the “shrunken log2 fold change” value was -0.0416. With RRIRWRPPRLPRPRPRPTAWPRP the “shrunken log2 fold change” value was 2. RRIRWRPPRLPRPRPRPTCLPRP was tested, and the “shrunken log2 fold change” value was 0.324. In the case of RRIRWRPPRLPRPRPRPTCVPRP, the “shrunken log2 fold change” value is reported as 0.145. With RRIRWRPPRLPRPRPRPTDKPRP the “shrunken log2 fold change” value was -0.0481. RRIRWRPPRLPRPRPRPTDQPRP was tested, and the “shrunken log2 fold change” value was 0.203. For RRIRWRPPRLPRPRPRPTEFPRP, the “shrunken log2 fold change” value was -0.0793. RRIRWRPPRLPRPRPRPTETPRP was tested, and the “shrunken log2 fold change” value was 0.0028. In the case of RRIRWRPPRLPRPRPRPTFVPRP, the “shrunken log2 fold change” value is reported as -0.183. RRIRWRPPRLPRPRPRPTFWPRP was tested, and the “shrunken log2 fold change” value was 0.617. With RRIRWRPPRLPRPRPRPTGFPRP the “shrunken log2 fold change” value was 0.645. For RRIRWRPPRLPRPRPRPTGPPRP, the “shrunken log2 fold change” value was 0.217. RRIRWRPPRLPRPRPRPTGQPRP was tested, and the “shrunken log2 fold change” value was -0.0283. RRIRWRPPRLPRPRPRPTIAPRP was tested, and the “shrunken log2 fold change” value was 0.367. For RRIRWRPPRLPRPRPRPTIRPRP, the “shrunken log2 fold change” value was -0.343. In the case of RRIRWRPPRLPRPRPRPTKTPRP, the “shrunken log2 fold change” value is reported as 0.0481. For RRIRWRPPRLPRPRPRPTMFPRP, the “shrunken log2 fold change” value was 0.0589. With RRIRWRPPRLPRPRPRPTNCPRP the “shrunken log2 fold change” value was -0.0666. For RRIRWRPPRLPRPRPRPTNTPRP, the “shrunken log2 fold change” value was -0.284. RRIRWRPPRLPRPRPRPTNYPRP was tested, and the “shrunken log2 fold change” value was -0.347. For RRIRWRPPRLPRPRPRPTPAPRP, the “shrunken log2 fold change” value was 0.584. For RRIRWRPPRLPRPRPRPTPRPRP, the “shrunken log2 fold change” value was 0.851. With RRIRWRPPRLPRPRPRPTQDPRP the “shrunken log2 fold change” value was 0.755. For RRIRWRPPRLPRPRPRPTRKPRP, the “shrunken log2 fold change” value was -0.0294. For RRIRWRPPRLPRPRPRPTRPPRP, the “shrunken log2 fold change” value was 0.855. With RRIRWRPPRLPRPRPRPTSGPRP the “shrunken log2 fold change” value was 0.593. In the case of RRIRWRPPRLPRPRPRPTSHPRP, the “shrunken log2 fold change” value is reported as -0.26. For RRIRWRPPRLPRPRPRPTSQPRP, the “shrunken log2 fold change” value was 0.229. For RRIRWRPPRLPRPRPRPTSWPRP, the “shrunken log2 fold change” value was 0.249. RRIRWRPPRLPRPRPRPTSYPRP was tested, and the “shrunken log2 fold change” value was -0.103. With RRIRWRPPRLPRPRPRPTVTPRP the “shrunken log2 fold change” value was 0.0889. RRIRWRPPRLPRPRPRPTWFPRP was tested, and the “shrunken log2 fold change” value was -0.0378. For RRIRWRPPRLPRPRPRPTYYPRP, the “shrunken log2 fold change” value was -0.463. In the case of RRIRWRPPRLPRPRPRPVDKPRP, the “shrunken log2 fold change” value is reported as -0.0524. With RRIRWRPPRLPRPRPRPVEHPRP the “shrunken log2 fold change” value was -0.287. In the case of RRIRWRPPRLPRPRPRPVFFPRP, the “shrunken log2 fold change” value is reported as 0.238. In the case of RRIRWRPPRLPRPRPRPVFPPRP, the “shrunken log2 fold change” value is reported as 0.268. RRIRWRPPRLPRPRPRPVGFPRP was tested, and the “shrunken log2 fold change” value was 0.558. In the case of RRIRWRPPRLPRPRPRPVGHPRP, the “shrunken log2 fold change” value is reported as 0.243. With RRIRWRPPRLPRPRPRPVGNPRP the “shrunken log2 fold change” value was 0.0858. With RRIRWRPPRLPRPRPRPVHHPRP the “shrunken log2 fold change” value was -0.0507. With RRIRWRPPRLPRPRPRPVIKPRP the “shrunken log2 fold change” value was -0.226. With RRIRWRPPRLPRPRPRPVIQPRP the “shrunken log2 fold change” value was -0.2. In the case of RRIRWRPPRLPRPRPRPVKAPRP, the “shrunken log2 fold change” value is reported as 0.284. For RRIRWRPPRLPRPRPRPVKIPRP, the “shrunken log2 fold change” value was -0.142. With RRIRWRPPRLPRPRPRPVKSPRP the “shrunken log2 fold change” value was 0.0342. RRIRWRPPRLPRPRPRPVMHPRP was tested, and the “shrunken log2 fold change” value was -0.119. RRIRWRPPRLPRPRPRPVNNPRP was tested, and the “shrunken log2 fold change” value was 0.018. For RRIRWRPPRLPRPRPRPVQFPRP, the “shrunken log2 fold change” value was 0.0316. For RRIRWRPPRLPRPRPRPVQMPRP, the “shrunken log2 fold change” value was 0.159. For RRIRWRPPRLPRPRPRPVRFPRP, the “shrunken log2 fold change” value was 0.0694. With RRIRWRPPRLPRPRPRPVSDPRP the “shrunken log2 fold change” value was 0.191. RRIRWRPPRLPRPRPRPVSEPRP was tested, and the “shrunken log2 fold change” value was 0.0771. In the case of RRIRWRPPRLPRPRPRPVSLPRP, the “shrunken log2 fold change” value is reported as 0.15. For RRIRWRPPRLPRPRPRPVWIPRP, the “shrunken log2 fold change” value was 0.142. For RRIRWRPPRLPRPRPRPVWNPRP, the “shrunken log2 fold change” value was -0.232. With RRIRWRPPRLPRPRPRPVYKPRP the “shrunken log2 fold change” value was -0.516. In the case of RRIRWRPPRLPRPRPRPWAMPRP, the “shrunken log2 fold change” value is reported as 0.0321. For RRIRWRPPRLPRPRPRPWAQPRP, the “shrunken log2 fold change” value was -0.381. For RRIRWRPPRLPRPRPRPWAYPRP, the “shrunken log2 fold change” value was -0.502. With RRIRWRPPRLPRPRPRPWDKPRP the “shrunken log2 fold change” value was -0.0732. RRIRWRPPRLPRPRPRPWGKPRP was tested, and the “shrunken log2 fold change” value was 0.0784. RRIRWRPPRLPRPRPRPWHNPRP was tested, and the “shrunken log2 fold change” value was -0.203. With RRIRWRPPRLPRPRPRPWITPRP the “shrunken log2 fold change” value was -0.0174. With RRIRWRPPRLPRPRPRPWKAPRP the “shrunken log2 fold change” value was -0.00884. With RRIRWRPPRLPRPRPRPWMIPRP the “shrunken log2 fold change” value was -0.0414. In the case of RRIRWRPPRLPRPRPRPWMQPRP, the “shrunken log2 fold change” value is reported as -0.147. With RRIRWRPPRLPRPRPRPWNKPRP the “shrunken log2 fold change” value was 0.087. RRIRWRPPRLPRPRPRPWPFPRP was tested, and the “shrunken log2 fold change” value was 0.481. For RRIRWRPPRLPRPRPRPWPGPRP, the “shrunken log2 fold change” value was 0.217. RRIRWRPPRLPRPRPRPWPYPRP was tested, and the “shrunken log2 fold change” value was -0.0146. With RRIRWRPPRLPRPRPRPWSCPRP the “shrunken log2 fold change” value was -0.169. RRIRWRPPRLPRPRPRPWWQPRP was tested, and the “shrunken log2 fold change” value was 0.16. In the case of RRIRWRPPRLPRPRPRPWWYPRP, the “shrunken log2 fold change” value is reported as -0.203. RRIRWRPPRLPRPRPRPWYGPRP was tested, and the “shrunken log2 fold change” value was -0.34. RRIRWRPPRLPRPRPRPWYQPRP was tested, and the “shrunken log2 fold change” value was -0.179. For RRIRWRPPRLPRPRPRPYACPRP, the “shrunken log2 fold change” value was -0.355. In the case of RRIRWRPPRLPRPRPRPYAGPRP, the “shrunken log2 fold change” value is reported as 0.0399. RRIRWRPPRLPRPRPRPYAQPRP was tested, and the “shrunken log2 fold change” value was -0.189. In the case of RRIRWRPPRLPRPRPRPYDSPRP, the “shrunken log2 fold change” value is reported as -0.377. For RRIRWRPPRLPRPRPRPYEIPRP, the “shrunken log2 fold change” value was -0.402. With RRIRWRPPRLPRPRPRPYGTPRP the “shrunken log2 fold change” value was -0.232. For RRIRWRPPRLPRPRPRPYHIPRP, the “shrunken log2 fold change” value was -0.96. With RRIRWRPPRLPRPRPRPYHKPRP the “shrunken log2 fold change” value was -0.118. With RRIRWRPPRLPRPRPRPYKFPRP the “shrunken log2 fold change” value was -0.22. RRIRWRPPRLPRPRPRPYKYPRP was tested, and the “shrunken log2 fold change” value was -0.977. For RRIRWRPPRLPRPRPRPYLPPRP, the “shrunken log2 fold change” value was -0.826. In the case of RRIRWRPPRLPRPRPRPYLVPRP, the “shrunken log2 fold change” value is reported as -0.195. For RRIRWRPPRLPRPRPRPYNMPRP, the “shrunken log2 fold change” value was -0.883. For RRIRWRPPRLPRPRPRPYNSPRP, the “shrunken log2 fold change” value was -0.178. With RRIRWRPPRLPRPRPRPYPFPRP the “shrunken log2 fold change” value was -0.0811. For RRIRWRPPRLPRPRPRPYQFPRP, the “shrunken log2 fold change” value was -0.00205. RRIRWRPPRLPRPRPRPYRMPRP was tested, and the “shrunken log2 fold change” value was 0.0292. With RRIRWRPPRLPRPRPRPYRPPRP the “shrunken log2 fold change” value was -0.573. In the case of RRIRWRPPRLPRPRPRPYTDPRP, the “shrunken log2 fold change” value is reported as 0.102. With RRIRWRPPRLPRPRPRPYVDPRP the “shrunken log2 fold change” value was -0.171. In the case of RRIRWRPPRLPRPRPRPYYEPRP, the “shrunken log2 fold change” value is reported as -0.742. In the case of RRIRWRPPRLPRPRPRPYYKPRP, the “shrunken log2 fold change” value is reported as -0.823. In the case of RRIRWRPPRLPRPRPRPYYVPRP, the “shrunken log2 fold change” value is reported as -0.213. RRIRYRPPRLPRPRPRPACIPRP was tested, and the “shrunken log2 fold change” value was -0.389. RRIRYRPPRLPRPRPRPADPPRP was tested, and the “shrunken log2 fold change” value was 0.035. RRIRYRPPRLPRPRPRPADSPRP was tested, and the “shrunken log2 fold change” value was -0.212. RRIRYRPPRLPRPRPRPAEYPRP was tested, and the “shrunken log2 fold change” value was -0.58.
